Patent US20130102009A1, “SIRTUIN ACTIVATORS AND ACTIVATION ASSAYS” (priority 2010, published 2013)

What was measured:
Test in all cases: Steady-state kinetic parameters for SIRT1 substrates (PNC1-GDH-coupled assay)
Type in all cases: biochemical, human
Settings in all cases: other: 25° C., pH 7.5, [NAD+]o = 2 mM, [SIRT1]o 50-1,000 nM
[1] = substrate: CCCC[C@H](NC(=O)[C@H](CCCCNC(C)=O)NC(=O)[C@H](CO)NC(=O)[C@H](Cc1c[nH]cn1)NC(=O)[C@H](CO)NC(=O)[C@H](CO)NC(=O)[C@@H](NC(=O)[C@H](CO)NC(=O)[C@H](CCC(N)=O)NC(=O)CNC(=O)[C@H](CCCCNC(=O)CCCC[C@@H]1SC[C@@H]2NC(=O)N[C@@H]21)NC(=O)[C@H](CCC(=O)O)NC(=O)[C@H](CCC(=O)O)NC(C)=O)[C@@H](C)O)C(=O)N[C@@H](CO)C(=O)N[C@H](C(=O)N[C@@H](CCC(=O)O)C(=O)NCC(=O)N[C@@H](CCCCN)C(=O)N[C@@H](CCC(=O)O)C(=O)N[C@@H](CCC(=O)O)C(N)=O)[C@@H](C)O
Procedure: (§1) All peptides were prepared by BioPeptide (San Diego, Calif.) and shown to be at least 95% pure by analytical HPLC analysis. Bovine glutamate dehydrogenase (GDH), α-ketoglutarate, NADH and NAD^+ were from Sigma Chemical Company. Full-length, human SIRT1 and the truncated version used for biophysical studies SIRT1(183-664) were prepared as described previously, and shown to have equivalent kinetic properties (Milne et al. (2007) Nature 450, 712-716). The nicotinamidase PNC1 was prepared as described by Denu and colleagues (Smith et al. (2009) Anal Biochem 394, 101-109).
(§2) To determine the interaction of STACs with SIRT1 two kinetic methods were employed. One, which was used for TAMRA-peptide, desTAMRA-peptide, des(biotin,TAMRA)-peptide, and p53-20 mer, used a previously described mass spectroscopic method for detection of peptide reaction products (Milne et al. (2007) Nature 450, 712-716). The other, used with peptides of general structure Ac-Arg-His-Lys-Lys^Ac-X, used a continuous, enzyme-coupled method reported previously (Smith et al. (2009) Anal Biochem 394, 101-109), in which the SRT1 product nicotinamide is first converted into nicotinic acid and ammonia by the action of PNC1, and the ammonia then used by GDH to convert α-ketoglutarate into glutamate. This reaction occurs with oxidation of NADH to NAD^+ which is accompanied by a change in absorbance at 340 nm (Δε340=−6,200 M^−1 cm^−1).
(§3) The kinetic experiments used to characterize activators were run on a Perkin Elmer Lambda 25 spectrophotometer equipped with a water-jacketed, eight-cell changer maintained at 25° C. In a typical kinetic experiment, all components of the reaction solution except SIRT1 were added to a 1 mL cuvette and allowed to reach thermal equilibrium. Final concentrations of the coupling system components were: 1 μM PNC1, 0.23 mM NADH, 3.4 mM α-ketoglutarate, and 20 U/mL bovine GDH. This solution also contained peptide substrate, NAD^.0., and activator, at concentrations indicated in the text. The final DMSO concentration was kept constant at 1%, and the buffer used in these experiments was 50 mM HEPES, 150 mM NaCl, pH 7.5. While the system was reaching thermal equilibrium, the absorbance was monitored to provide an accurate estimate of the background rate, which was subtracted from the reaction rate after the addition of SIRT1.
(§4) The parameters reported in this table were all determined using the PNC1-GDH-coupled assay. Kinetic parameters for the four 20 mers were also estimated using the mass spectroscopy-based assay first described by Milne et al. ((2007) Nature 450, 712-716) and agree with those reported in Table 3.

[2] = substrate: CC(=O)NCCCC[C@H](NC(=O)[C@H](CCCCN)NC(=O)[C@H](Cc1c[nH]cn1)NC(=O)[C@H](CCCNC(=N)N)NC(C)=O)C(=O)N[C@@H](Cc1ccccc1)C(N)=O
Procedure: as §1, §2, §3, §4

[3] = substrate: CC(=O)NCCCC[C@H](NC(=O)[C@H](CCCCN)NC(=O)[C@H](Cc1c[nH]cn1)NC(=O)[C@H](CCCNC(=N)N)NC(C)=O)C(N)=O
Procedure: as §1, §2, §3, §4

[4] = substrate: CC(=O)NCCCC[C@H](NC(=O)[C@H](CCCCN)NC(=O)[C@H](Cc1c[nH]cn1)NC(=O)[C@H](CCCNC(=N)N)NC(C)=O)C(=O)N[C@@H](Cc1c[nH]c2ccccc12)C(N)=O
Procedure: as §1, §2, §3, §4

[5] = substrate: CC(=O)NCCCC[C@H](NC(=O)[C@H](CCCCN)NC(=O)[C@H](Cc1c[nH]cn1)NC(=O)[C@H](CCCNC(=N)N)NC(C)=O)C(=O)N[C@@H](C)C(N)=O
Procedure: as §1, §2, §3, §4

[6] = substrate: CC(=O)NCCCC[C@H](NC(=O)[C@H](CCCCN)NC(=O)[C@H](Cc1c[nH]cn1)NC(=O)[C@H](CCCNC(=N)N)NC(C)=O)C(=O)Nc1ccc2c(C)cc(=O)oc2c1
Procedure: as §1, §2, §3, §4

B1: SIRT1 (Homo sapiens) (protein)
chain: MADEAALALQPGGSPSAAGADREAASSPAGEPLRKRPRRDGPGLERSPGEPGGAAPEREVPAAARGCPGAAAAALWREAEAEAAAAGGEQEAQATAAAGEGDNGPGLQGPSREPPLADNLYDEDDDDEGEEEEEAAAAAIGYRDNLLFGDEIITNGFHSCESDEEDRASHASSSDWTPRPRIGPYTFVQQHLMIGTDPRTILKDLLPETIPPPELDDMTLWQIVINILSEPPKRKKRKDINTIEDAVKLLQECKKIIVLTGAGVSVSCGIPDFRSRDGIYARLAVDFPDLPDPQAMFDIEYFRKDPRPFFKFAKEIYPGQFQPSLCHKFIALSDKEGKLLRNYTQNIDTLEQVAGIQRIIQCHGSFATASCLICKYKVDCEAVRGDIFNQVVPRCPRCPADEPLAIMKPEIVFFGENLPEQFHRAMKYDKDEVDLLIVIGSSLKVRPVALIPSSIPHEVPQILINREPLPHLHFDVELLGDCDVIINELCHRLGGEYAKLCCNPVKLSEITEKPPRTQKELAYLSELPPTPLHVSEDSSSPERTSPPDSSVIVTLLDQAAKSNDDLDVSESKGCMEEKPQEVQTSRNVESIAEQMENPDLKNVGSSTGEKNERTSVAGTVRKCWPNRVAKEQISRRLDGNQYLFLPPNRYIFHGAEVYSDSEDDVLSSSSCGSNSDSGTCQSPSLEEPMEDESEIEEFYNGLEDEPDVPERAGGAGFGTDGDDQEAINEAISVKQEVTDMNYPSNKS
**Q.** Which Km [1] does the source give for B1 here?
**A.** Its Km is 33 µM.

**Q.** And the Km [2]?
**A.** Its Km is 7.1 µM.

**Q.** What about the Km [3] of the same protein?
**A.** The Km was 23 µM.

**Q.** And the Km [4]?
**A.** The Km was 4.0 µM.

**Q.** And the Km [5]?
**A.** The Km was 13 µM.

**Q.** And the Km [6]?
**A.** Its Km is 110 µM.
